Measured values taken from patent publication US11833164B2, “Methods of treating Fabry disease in patients having a mutation in the GLA gene” (Amicus Therapeutics, Inc., priority 2019, dated 2023).

Test system: mutant form of α-Gal A expressed in HEK-293 cells
Assay: HEK assay (GLP HEK / Migalastat Amenability Assay): α-Gal A activity in lysates of transiently transfected HEK-293 cells incubated with or without 10 μM migalastat
Assay type: cell-based, human
Conditions: for Absolute increase (% WT) / Relative increase: 10 μM migalastat versus baseline; for Baseline α-Gal A activity (% WT): absence of migalastat; for Baseline α-Gal A activity (% WT) / 10 μM migalastat α-Gal A activity (% WT): percentage of baseline wild-type α-Gal A activity; for Baseline α-Gal A activity (% WT) / Baseline α-Gal A activity / 10 μM migalastat α-Gal A activity / 10 μM migalastat α-Gal A activity (% WT): mean ± SEM; for Baseline α-Gal A activity / 10 μM migalastat α-Gal A activity: lysates of HEK-293 cells transiently transfected with the mutant form; for Baseline α-Gal A activity: incubated 5 days in absence of migalastat; for 10 μM migalastat α-Gal A activity: incubated 5 days with 10 μM migalastat; for 10 μM migalastat α-Gal A activity (% WT): with 10 μM migalastat, 5 days
Procedure, shortened: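 Activity reported as 4-MU released (nmol/mg/hr), mean±SEM, from lysates of transiently transfected HEK-293 cells expressing mutant α-Gal A, cultured with or without 10 μM migalastat.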

Molecule	Absolute increase (% WT)	Relative increase	Baseline α-Gal A activity (% WT)	Baseline α-Gal A activity	10 μM migalastat α-Gal A activity	10 μM migalastat α-Gal A activity (% WT)
P343S (protein) MQLRNPELHLGCALALRFLALVSWDIPGARALDNGLARTPTMGWLHWERFMCNLDCQEEPDSCISEKLFMEMAELMVSEGWKDAGYEYLCIDDCWMAPQRDSEGRLQADPQRFPHGIRQLANYVHSKGLKLGIYADVGNKTCAGFPGSFGYYDIDAQTFADWGVDLLKFDGCYCDSLENLADGYKHMSLALNRTGRSIVYSCEWPLYMWPFQKPNYTEIRQYCNHWRNFADIDDSWKSIKSILDWTSFNQERIVDVAGPGGWNDPDMLVIGNFGLSWNQQVTQMALWAIMAAPLFMSNDLRHISPQAKALLQDKDVIAINQDPLGKQGYQLRQGDNFEVWERSLSGLAWAVAMINRQEIGGPRSYTIAVASLGKGVACNPACFITQLLPVKRKLGFYEWTSRLRSHINPTGTVLLQLENTMQMSLKDLL	19.0 % WT	1.3	62.1 ± 2.7 % WT	22132 ± 1243 nmol/mg/h	29289 ± 2351 nmol/mg/h	81.1 ± 4.6 % WT
L344R (protein) MQLRNPELHLGCALALRFLALVSWDIPGARALDNGLARTPTMGWLHWERFMCNLDCQEEPDSCISEKLFMEMAELMVSEGWKDAGYEYLCIDDCWMAPQRDSEGRLQADPQRFPHGIRQLANYVHSKGLKLGIYADVGNKTCAGFPGSFGYYDIDAQTFADWGVDLLKFDGCYCDSLENLADGYKHMSLALNRTGRSIVYSCEWPLYMWPFQKPNYTEIRQYCNHWRNFADIDDSWKSIKSILDWTSFNQERIVDVAGPGGWNDPDMLVIGNFGLSWNQQVTQMALWAIMAAPLFMSNDLRHISPQAKALLQDKDVIAINQDPLGKQGYQLRQGDNFEVWERPRSGLAWAVAMINRQEIGGPRSYTIAVASLGKGVACNPACFITQLLPVKRKLGFYEWTSRLRSHINPTGTVLLQLENTMQMSLKDLL	15.3 % WT	2.3	10.9 ± 1.4 % WT	4983 ± 848 nmol/mg/h	11592 ± 1593 nmol/mg/h	26.2 ± 2.6 % WT
G346V (protein) MQLRNPELHLGCALALRFLALVSWDIPGARALDNGLARTPTMGWLHWERFMCNLDCQEEPDSCISEKLFMEMAELMVSEGWKDAGYEYLCIDDCWMAPQRDSEGRLQADPQRFPHGIRQLANYVHSKGLKLGIYADVGNKTCAGFPGSFGYYDIDAQTFADWGVDLLKFDGCYCDSLENLADGYKHMSLALNRTGRSIVYSCEWPLYMWPFQKPNYTEIRQYCNHWRNFADIDDSWKSIKSILDWTSFNQERIVDVAGPGGWNDPDMLVIGNFGLSWNQQVTQMALWAIMAAPLFMSNDLRHISPQAKALLQDKDVIAINQDPLGKQGYQLRQGDNFEVWERPLSVLAWAVAMINRQEIGGPRSYTIAVASLGKGVACNPACFITQLLPVKRKLGFYEWTSRLRSHINPTGTVLLQLENTMQMSLKDLL	22.7 % WT	1.8	28.8 ± 2.4 % WT	11683 ± 1406 nmol/mg/h	20902 ± 2356 nmol/mg/h	51.4 ± 3.9 % WT
L344F (protein) MQLRNPELHLGCALALRFLALVSWDIPGARALDNGLARTPTMGWLHWERFMCNLDCQEEPDSCISEKLFMEMAELMVSEGWKDAGYEYLCIDDCWMAPQRDSEGRLQADPQRFPHGIRQLANYVHSKGLKLGIYADVGNKTCAGFPGSFGYYDIDAQTFADWGVDLLKFDGCYCDSLENLADGYKHMSLALNRTGRSIVYSCEWPLYMWPFQKPNYTEIRQYCNHWRNFADIDDSWKSIKSILDWTSFNQERIVDVAGPGGWNDPDMLVIGNFGLSWNQQVTQMALWAIMAAPLFMSNDLRHISPQAKALLQDKDVIAINQDPLGKQGYQLRQGDNFEVWERPFSGLAWAVAMINRQEIGGPRSYTIAVASLGKGVACNPACFITQLLPVKRKLGFYEWTSRLRSHINPTGTVLLQLENTMQMSLKDLL	9.0 % WT	16.7	0.6 ± 0.1 % WT	217 ± 25 nmol/mg/h	3629 ± 614 nmol/mg/h	9.6 ± 1.4 % WT
G346A (protein) MQLRNPELHLGCALALRFLALVSWDIPGARALDNGLARTPTMGWLHWERFMCNLDCQEEPDSCISEKLFMEMAELMVSEGWKDAGYEYLCIDDCWMAPQRDSEGRLQADPQRFPHGIRQLANYVHSKGLKLGIYADVGNKTCAGFPGSFGYYDIDAQTFADWGVDLLKFDGCYCDSLENLADGYKHMSLALNRTGRSIVYSCEWPLYMWPFQKPNYTEIRQYCNHWRNFADIDDSWKSIKSILDWTSFNQERIVDVAGPGGWNDPDMLVIGNFGLSWNQQVTQMALWAIMAAPLFMSNDLRHISPQAKALLQDKDVIAINQDPLGKQGYQLRQGDNFEVWERPLSALAWAVAMINRQEIGGPRSYTIAVASLGKGVACNPACFITQLLPVKRKLGFYEWTSRLRSHINPTGTVLLQLENTMQMSLKDLL	22.0 % WT	1.4	58.3 ± 3.3 % WT	23263 ± 1479 nmol/mg/h	31948 ± 1306 nmol/mg/h	80.4 ± 2.8 % WT
L344V (protein) MQLRNPELHLGCALALRFLALVSWDIPGARALDNGLARTPTMGWLHWERFMCNLDCQEEPDSCISEKLFMEMAELMVSEGWKDAGYEYLCIDDCWMAPQRDSEGRLQADPQRFPHGIRQLANYVHSKGLKLGIYADVGNKTCAGFPGSFGYYDIDAQTFADWGVDLLKFDGCYCDSLENLADGYKHMSLALNRTGRSIVYSCEWPLYMWPFQKPNYTEIRQYCNHWRNFADIDDSWKSIKSILDWTSFNQERIVDVAGPGGWNDPDMLVIGNFGLSWNQQVTQMALWAIMAAPLFMSNDLRHISPQAKALLQDKDVIAINQDPLGKQGYQLRQGDNFEVWERPVSGLAWAVAMINRQEIGGPRSYTIAVASLGKGVACNPACFITQLLPVKRKLGFYEWTSRLRSHINPTGTVLLQLENTMQMSLKDLL	16.8 % WT	1.4	40.6 ± 3.2 % WT	13586 ± 1026 nmol/mg/h	19262 ± 903 nmol/mg/h	57.5 ± 2.5 % WT
G346C (protein) MQLRNPELHLGCALALRFLALVSWDIPGARALDNGLARTPTMGWLHWERFMCNLDCQEEPDSCISEKLFMEMAELMVSEGWKDAGYEYLCIDDCWMAPQRDSEGRLQADPQRFPHGIRQLANYVHSKGLKLGIYADVGNKTCAGFPGSFGYYDIDAQTFADWGVDLLKFDGCYCDSLENLADGYKHMSLALNRTGRSIVYSCEWPLYMWPFQKPNYTEIRQYCNHWRNFADIDDSWKSIKSILDWTSFNQERIVDVAGPGGWNDPDMLVIGNFGLSWNQQVTQMALWAIMAAPLFMSNDLRHISPQAKALLQDKDVIAINQDPLGKQGYQLRQGDNFEVWERPLSCLAWAVAMINRQEIGGPRSYTIAVASLGKGVACNPACFITQLLPVKRKLGFYEWTSRLRSHINPTGTVLLQLENTMQMSLKDLL	9.7 % WT	1.3	39.5 ± 1.9 % WT	18258 ± 1054 nmol/mg/h	22856 ± 1772 nmol/mg/h	49.2 ± 2.9 % WT
G346D (protein) MQLRNPELHLGCALALRFLALVSWDIPGARALDNGLARTPTMGWLHWERFMCNLDCQEEPDSCISEKLFMEMAELMVSEGWKDAGYEYLCIDDCWMAPQRDSEGRLQADPQRFPHGIRQLANYVHSKGLKLGIYADVGNKTCAGFPGSFGYYDIDAQTFADWGVDLLKFDGCYCDSLENLADGYKHMSLALNRTGRSIVYSCEWPLYMWPFQKPNYTEIRQYCNHWRNFADIDDSWKSIKSILDWTSFNQERIVDVAGPGGWNDPDMLVIGNFGLSWNQQVTQMALWAIMAAPLFMSNDLRHISPQAKALLQDKDVIAINQDPLGKQGYQLRQGDNFEVWERPLSDLAWAVAMINRQEIGGPRSYTIAVASLGKGVACNPACFITQLLPVKRKLGFYEWTSRLRSHINPTGTVLLQLENTMQMSLKDLL	35.8 % WT	1.5	67.5 ± 6.4 % WT	31327 ± 3822 nmol/mg/h	46560 ± 3904 nmol/mg/h	103.3 ± 6 % WT
